Experimental data published in patent US20190100594A1 (INHIBRX, published 2019).
Like-named read-outs stand apart in the source and are kept apart here. One block for each binder: values may come before it.

Legend:
[1] = molecular target: T1, GITR expressed on CHO cells (Homo sapiens (Human), UniProt Q9Y5U5 26-241); assay: flow cytometry on GITR-expressing CHO cells, MFI-FL4
T1 construct: also called glucocorticoid-induced TNFR-related protein; TNFRSF18
T1 sequence: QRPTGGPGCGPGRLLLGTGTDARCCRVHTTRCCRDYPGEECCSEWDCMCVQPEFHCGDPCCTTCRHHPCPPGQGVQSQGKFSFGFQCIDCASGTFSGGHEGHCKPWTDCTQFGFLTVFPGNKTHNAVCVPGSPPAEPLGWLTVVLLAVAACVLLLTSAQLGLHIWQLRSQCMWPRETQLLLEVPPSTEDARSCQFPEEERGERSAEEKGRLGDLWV

[2] = molecular target: T1, GITR expressed on CHO cells; assay: flow cytometry competition on GITR-expressing CHO cells; blocked ligand recombinant GITRL; readout GITRL bound, MFI-FL1
From the text: Briefly, in these studies, a flow cytometry assay using GITR expressing CHO cells and recombinant GITRL was used to implement to assess blocking capacity. The GITR antibody, TRX-518, was used as a control for these studies.

cyno GITR-CHO [3] = molecular target: T2, cyno GITR-CHO (cynomolgus monkey); assay: flow cytometry on cyno GITR-CHO cells
T2 construct: expressed on the surface of CHO cells, construct not described; also called cynomolgus GITR expressed on the surface of CHO cells

human GITR-CHO [4] = molecular target: T3, human GITR-CHO (human, UniProt Q9Y5U5); assay: flow cytometry on human GITR-CHO cells
T3 construct: expressed on the surface of CHO cells, construct not described; also called human GITR expressed on the surface of CHO cells
T3 sequence (looked up): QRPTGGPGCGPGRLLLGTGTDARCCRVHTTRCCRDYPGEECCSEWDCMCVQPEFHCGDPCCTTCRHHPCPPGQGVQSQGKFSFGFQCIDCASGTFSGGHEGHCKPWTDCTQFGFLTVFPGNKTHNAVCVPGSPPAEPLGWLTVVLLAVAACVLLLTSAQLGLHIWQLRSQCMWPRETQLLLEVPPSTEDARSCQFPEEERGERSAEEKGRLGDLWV

cyno GITR-CHO [5] = molecular target: T2, cyno GITR-CHO; assay: flow cytometry on cyno GITR-CHO cells; remark: listed apart in the source
human GITR-CHO [6] = molecular target: T3, human GITR-CHO; assay: flow cytometry on human GITR-CHO cells; remark: listed apart in the source
human GITR-CHO [7] = molecular target: T3, human GITR-CHO; assay: flow cytometry on human GITR-CHO cells; remark: listed apart in the source
cyno GITR-CHO [8] = molecular target: T2, cyno GITR-CHO; assay: flow cytometry on cyno GITR-CHO cells; remark: listed apart in the source
human GITR-CHO [9] = molecular target: T3, human GITR-CHO; assay: flow cytometry on human GITR-CHO cells; remark: listed apart in the source

B3: 2A1 (VHH, not shown: a dimerising Fc or GST; small tags and cut ends)
VHH: EVQLVQSGGGLVQPGGSLRLSCAASGNIFSIDAMGWYRQAPGRQRELVAQIPGGPTDSVKGRFTVSGNSAKNTGYLQMNTLKPEDTAVYYCNIVASTSWGSPSKVYWGQGTQATVSS
EC50 (read off the curve) [1]: ~10 nM
IC50 (read off the curve) [2]: ~10 nM

B4: hzCC04v5 (VHH)
VHH: EVQLLESGGGEVQPGGSLRLSCAASGFTFSTHGMDWFRQAPGKDLEWVSAIQSGGSWTSYASSVKGRFTISRDNAKNTLYLQMSSLRAEDTAVYWCQNRVTRGQGTLVTV
notes: also called hzC04v5
EC50 (read off the curve) (cyno GITR-CHO [3]): ~2 nM
EC50 (read off the curve) (human GITR-CHO [4]): ~3 nM

B5: hzCC04v5.1 (VHH)
VHH: EVQLLESGGGEVQPGGSLRLSCAASGFTFSTHGMDWFRQAPGKDLEWVSAIQSGGSWTSYASSVKGRFTISRDNAKNTLYLEMNNLKPEDTAVYWCQNRVTRGQGTLVTV
notes: sheet prints hzCC04, text hzC04; also called hzC04v5.1
EC50 (read off the curve) (cyno GITR-CHO [5]): ~2 nM
EC50 (read off the curve) (human GITR-CHO [6]): ~4 nM

B7: hzCC04v1.2 (VHH)
VHH: EVQLLESGGGEVQPGGSLRLSCAASGFTFSTHGMDWFRQAPGKDLEWVSAINNGGSWTSYASSVKGRFTISRDNAKNTLYLQMSSLRAEDTAVYYCQNRVTRGQGTLVTV
notes: sheet prints hzCC04v1.2; also called hzC04v1.2
binding result (human GITR-CHO [7]): binds

B11: hzCC04v5.3 (VHH)
VHH: EVQLLESGGGEVQPGGSLRLSCAASGFTFSTHGMDWFRQAPGKDLEWVSAIQSGGSWTSYASSVKGRFTISRDNAKNTLYLEMSSLRAEDTAVYWCQNRVTRGQGTLVTV
notes: sheet prints hzCC04, text hzC04; also called hzC04v5.3
EC50 (read off the curve) (cyno GITR-CHO [5]): ~2 nM
EC50 (read off the curve) (human GITR-CHO [6]): ~5 nM

B13: hzC06v3.4 (VHH)
VHH: EVQLLESGGGEVQPGGSLRLSCAASGSVFSIDAMGWYRQAPGKQRELVAVLSGISSAKYAESVKGRFTISRDNAKNTVYLQMSSLRAEDTAVYYCYADVSTGWGRDAHGYWGQGTLVTV
EC50 (read off the curve) (cyno GITR-CHO [8]): ~5 nM
EC50 (read off the curve) (human GITR-CHO [9]): ~4 nM

Results, then the binder that gave them:

EC50 (read off the curve) [1]: ~3 nM
IC50 (read off the curve) [2]: ~2 nM
B1: C06 (VHH, not shown: a dimerising Fc or GST; small tags and cut ends)
VHH: QVQLQESGGGLVQAGGSLRLSCAASGSVFSIDAMGWYRLAPGQQRELVAVLNGISSAKYADSVKGRFTISGDSAKNAVYLQMDGLKPEDTAVYYCYADVSTGWGRDAHGYWGQGTQVTVSS

EC50 (read off the curve) [1]: ~4 nM
IC50 (read off the curve) [2]: ~4 nM
B2: F05 (VHH, not shown: a dimerising Fc or GST; small tags and cut ends)
VHH: QVQLVQSGGGLVQAGGSLRLSCTASGSIFSINHMAWYRQAPGKQREMVAHITGGASTKYADSVKGRFTISRDSALNTVSLRMNSLKPEDTAVYYCNAEVNEGWNADYYDVWGQGTQVTVSS

EC50 (read off the curve) (cyno GITR-CHO [5]): ~1 nM
EC50 (read off the curve) (human GITR-CHO [6]): ~4 nM
B6: hzCC04v5.4 (VHH)
VHH: EVQLLESGGGEVQPGGSLRLSCAASGFTFSTHGMDWFRQAPGKDLEWVSAIQSGGSWTSYASSVKGRFTISRDNAKNTLYLQMSSLRPEDTAVYWCQNRVTRGQGTLVTV
notes: sheet prints hzCC04, text hzC04; also called hzC04v5.4

EC50 (read off the curve) (cyno GITR-CHO [3]): ~2 nM
EC50 (read off the curve) (human GITR-CHO [4]): ~2 nM
B8: hzCC04v1.2.1 (VHH)
VHH: EVQLLESGGGEVQPGGSLRLSCAASGFTFSTHGMDWFRQAPGKDLEWVSAINQGGSWTSYASSVKGRFTISRDNAKNTLYLQMSSLRAEDTAVYYCQNRVTRGQGTLVTV
notes: also called hzC04v1.2.1

EC50 (read off the curve) (cyno GITR-CHO [5]): ~1 nM
EC50 (read off the curve) (human GITR-CHO [6]): ~4 nM
B9: hzCC04v5.2 (VHH)
VHH: EVQLLESGGGEVQPGGSLRLSCAASGFTFSTHGMDWFRQAPGKDLEWVSAIQSGGSWTSYASSVKGRFTISRDNAKNTLYLQMNNLRAEDTAVYWCQNRVTRGQGTLVTV
notes: sheet prints hzCC04, text hzC04; also called hzC04v5.2

binding result (human GITR-CHO [7]): binds
B10: hzCC04v1 (VHH)
VHH: EVQLLESGGGEVQPGGSLRLSCAASGFTFSTHGMDWFRQAPGKDLEWVSAINNGGSWTSYASSVKGRFTISRDNAKNTLYLQMSSLRAEDTAVYWCQNRVTRGQGTLVTV
notes: sheet prints hzCC04v1; also called hzC04v1

EC50 (read off the curve) (cyno GITR-CHO [8]): ~5 nM
EC50 (read off the curve) (human GITR-CHO [9]): ~4 nM
B12: hzC06v3.3 (VHH)
VHH: EVQLLESGGGEVQPGGSLRLSCAASGSVFSIDAMGWYRQAPGKQRELVAVLSGISSAKYAESVKGRFTISRDSAKNAVYLQMDGLKPEDTAVYYCYADVSTGWGRDAHGYWGQGTLVTV

EC50 (read off the curve) (cyno GITR-CHO [8]): ~4 nM
EC50 (read off the curve) (human GITR-CHO [9]): ~4 nM
B14: hzC06v3.6 (VHH)
VHH: EVQLLESGGGEVQPGGSLRLSCAASGSVFSIDAMGWYRQAPGKQRELVAVLSGISSAKYAESVKGRFTISRASAPNTVYLQMSSLRAEDTAVYYCYADVSTGWGRDAHGYWGQGTLVTV
